# Measured values taken from patent US10781262B2, “Combination therapy of T cell activating bispecific antigen binding molecules and PD-1 axis binding antagonists” (Hoffmann-La Roche Inc., priority 2014, dated 2020).
# Like-named read-outs stand apart in the source and are kept apart here.
# Experiments:
# [1] = target: T1, human FolR2 (Homo sapiens, UniProt P14207); assay: SPR affinity of selected Fab clones (ProteOn XPR36); assay type: binding; set-up: the extracellular domain of the antigen linked to the hinge region of Fc-knob; made in house; host or cells: HEK293 EBNA; settings: Fab-format, generic multi-framework sub-libraries, 25° C.
# [2] = system: HEK cells transiently transfected with human FolR1 or human FolR2; assay: Flow cytometry specificity on transfected HEK cells; assay type: binding; settings: IgG
# Description: FIGS. 3A-B depict graphs summarizing specificity of FolR1 binders for FolR1. Binding of FolR1 IgGs to HEK cells transiently transfected with either FolR1 or FolR2 was analyzed by flow cytometry to identify clones which bind specifically to FolR1 and not to FolR2.
# (§1) New FolR1 hinders were generated via Phage Display using either a Fab library or a common light chain library using the CD3 light chain. The identified binders were converted into a human IgG1 format and binding to FolR1 high expressing HeLa cells was addressed. As reference molecule the human FolR1 binder Mov19 was included. […] In a next step the selected clones were tested for specificity to human FolR1 by excluding binding to the closely related human FolR2. HEK cells were transiently transfected with either human FolR1 or human FolR2 to address specificity. […] Therefore these clones were excluded from further characterization. In parallel cross-reactivity of the FolR1 clones to cyno FolR1 was addressed by performing binding studies to HEK cells transiently transfected with cyno FolR1. […] Subsequently three human FolR1 specific cyno cross-reactive binders were converted into TCB format and tested for induction of T cell killing and T cell activation. […] As reference molecule Mov19 FolR1 TCB was included in all studies. These FoLR1 TCBs were then used to compare induction of internalization after binding to FolR1 on HeLa cells.
# [3] = target: T2, human Folate Receptor 1 (FolR1-Fc) (Homo sapiens, UniProt P15328); assay: SPR avidity to Folate Receptor 1 (bivalent binding); settings: for ka / kd: bivalent binding (avidity), ligand huFolR1
# T2 construct: the extracellular domain of the antigen linked to the hinge region of Fc-knob; made in house; host or cells: HEK293 EBNA
# Description: The immobilization level was about 300-400 RU. […] The dissociation was monitored for 600 seconds.
# [4] = system: HEK cells transiently transfected with cyno FolR1; assay: Flow cytometry cross-reactivity on transfected HEK cells; assay type: binding, cynomolgus; settings: IgG
# Description: FIGS. 4A-B depict graphs summarizing cross-reactivity of FolR1 binders to cyFoLR1. Cross-reactivity of the FolR1 antibodies to cyno FolR1 was addressed on HEK cells transiently transfected with cyFolR1 by flow cytometry.
# as §1
# [5] = target: T3, human FolR3 (Homo sapiens, UniProt P41439); assay: SPR affinity of selected Fab clones (ProteOn XPR36); assay type: binding; set-up: the extracellular domain of the antigen linked to the hinge region of Fc-knob; made in house; host or cells: HEK293 EBNA; settings: Fab-format, generic multi-framework sub-libraries, 25° C.
# [6] = target: T3, human FolR3; settings: IgG injected for 60 seconds at 500 nM
# Description: (§2) Binding of FolR1 binders as IgG or in the T-cell bispecific format to different recombinant folate receptors (human FolR1, 2 and 3, murine FolR1 and cynomolgus FolR1; all as Fc fusions) was assessed by surface plasmon resonance (SPR). All SPR experiments were performed on a Biacore T200 at 25° C. with HBS-EP as running buffer (0.01 M HEPES pH 7.4, 0.15 M NaCl, 3 mM EDTA, 0.005% Surfactant P20, Biacore, Freiburg/Germany).
# (§3) First the anti-FolR1 IgGs were analyzed by single injections (Table 1) to characterize their crossreactivity (to human, murine and cyno FolR1) and specificity (to human FolR1, human FolR2, human FolR3). Recombinant biotinylated monomeric Fc fusions of human, cynomolgus and murine Folate Receptor 1 (FolR1-Fc) or human Folate Receptor 2 and 3 (FolR2-Fc, FolR3-Fc) were directly coupled on a SA chip using the standard coupling instruction (Biacore, Freiburg/Germany). The immobilization level was about 300-400 RU. The IgGs were injected for 60 seconds at a concentration of 500 nM.
# [7] = system: cynomolgus FolR1; settings: IgG injected for 60 seconds at 500 nM
# Description: as §2, §3
# [8] = target: human FolR1 (Homo sapiens, UniProt P15328); settings: IgG injected for 60 seconds at 500 nM
# Description: as §2, §3
# [9] = target: murine FolR1 (Mus musculus, UniProt P35846); settings: IgG injected for 60 seconds at 500 nM
# Description: as §2, §3
# [10] = target: T1, human FolR2; settings: IgG injected for 60 seconds at 500 nM
# Description: as §2, §3
# [11] = system: cynomolgus Folate Receptor 1 (FolR1-Fc); settings: bivalent binding (avidity), ligand cyFolR1
# Description: as §2
# (§4) The avidity of the interaction between the anti-FolR1 IgGs or T cell bispecifics and the recombinant folate receptors was determined as described below (Table 9). Recombinant biotinylated monomeric Fc fusions of human, cynomolgus and murine Folate Receptor 1 (FolR1-Fc) were directly coupled on a SA chip using the standard coupling instruction (Biacore, Freiburg/Germany). The immobilization level was about 300-400 RU. The anti-FolR1 IgGs or T cell bispecifics were passed at a concentration range from 2.1 to 500 nM with a flow of 30 μL/minutes through the flow cells over 180 seconds. The dissociation was monitored for 600 seconds. […] The binding curves resulting from the bivalent binding of the IgGs or T cell bispecifics were approximated to a 1:1 Langmuir binding and fitted with that model (which is not correct, but gives an idea of the avidity). The apparent avidity constants for the interactions were derived from the rate constants of the fitting using the Bia Evaluation software (GE Healthcare).
# [12] = target: murine Folate Receptor 1 (FolR1-Fc) (Mus musculus, UniProt P35846); settings: bivalent binding (avidity), ligand muFolR1; 19H3 IgG with folate 2.3 μM in running buffer
# Description: as §2, §4
# [13] = system: huFolR1-Fc; assay: SPR epitope binning; assay type: binding, human; for binding of analyte in solution 16D5 TCB to huFolR1 captured on the immobilized binder: key: + means binding; − means no binding; +/− means weak binding; for binding of analyte in solution 21A5 TCB to huFolR1 captured on the immobilized binder: key: + means binding; − means no binding; +/− means weak binding; for binding of analyte in solution 36F2 IgG to huFolR1 captured on the immobilized binder: key: + means binding; − means no binding; +/− means weak binding; for binding of analyte in solution 9D11 TCB to huFolR1 captured on the immobilized binder: key: + means binding; − means no binding; +/− means weak binding
# Description: 500 nM huFolR1-Fc was then captured for 60 s, followed by 500 nM of the different binders for 30 s. The surface was regenerated with two injections of 10 mM glycine pH 2 for 30 s each.
# [14] = system: erythrocytes
# [15] = system: cyno Folate Receptor 1 Fc fusion; settings: monovalent binding (affinity), analyte cyFolR1
# Description: as §2
# (§5) For affinity measurement, direct coupling of around 6000-7000 resonance units (RU) of the anti-human Fab specific antibody (Fab capture kit, GE Healthcare) was performed on a CM5 chip at pH 5.0 using the standard amine coupling kit (GE Healthcare). Anti-FolR1 IgGs or T cell bispecifics were captured at 20 nM with a flow rate of 10 μl/min for 20 or 40 sec, the reference flow cell was left without capture. Dilution series (6.17 to 500 nM or 12.35 to 3000 nM) of human or cyno Folate Receptor 1 Fc fusion were passed on all flow cells at 30 μl/min for 120 or 240 sec to record the association phase. The dissociation phase was monitored for 240 s and triggered by switching from the sample solution to HBS-EP. The chip surface was regenerated after every cycle using a double injection of 60 sec 10 mM Glycine-HCl pH 2.1 or pH 1.5. Bulk refractive index differences were corrected for by subtracting the response obtained on the reference flow cell 1. The affinity constants for the interactions were derived from the rate constants by fitting to a 1:1 Langmuir binding using the Bia Evaluation software (GE Healthcare).
# [16] = target: human Folate Receptor 1 Fc fusion (Homo sapiens, UniProt P15328); settings: monovalent binding (affinity), analyte huFolR1
# Description: as §2, §5
# [17] = label = immobilized binder, 500 nM
molecule,measurement,setting,value
"36F2: anti-FolR1 clone, generic multi-framework library (Vk_3_20/VH_1_46); Fab and IgG (antibody, V domains shown) VH: QVQLVQSGAEVKKPGASVKVSCKASGYTFTSYYMHWVRQAPGQGLEWMGIINPSGGSTSYAQKFQGRVTMTHDTSTSTVYMELSSLRSEDTAVYYCARSFFTGFHLDYWGQGTLVTVSS VL: EIVLTQSPGTLSLSPGERATLSCRASQSVSSSYLAWYQQKPGQAPRLLIYGASSRATGIPDRFSGSGSGTDFTLTISRLEPEDFAVYYCQQYTNEHYYTFGQGTKVEIK",KD huFolR2,[1],no binding
same,specificity for human FolR1 versus human FolR2 on transfected HEK cells,[2],specifically to human FolR1 and not to human FolR2
same,dissociation from huFolR1 (in words),[3],dissociated rapidly from huFolR1
same,ka,[3],2.62e+06 M⁻¹ s⁻¹
same,kd,[3],0.0151 s⁻¹
same,binding to cyno FolR1 on transfected HEK cells,[4],bind comparably well human and cyno FoLR1
same,KD huFolR3,[5],no binding
same,Binding to huFolR3,[6],−
same,Binding to cyFolR1,[7],+
same,Binding to huFolR1,[8],+
same,Binding to muFolR1,[9],+
same,Binding to huFolR2,[10],−
same,ka,[11],3.02e+06 M⁻¹ s⁻¹
same,kd,[11],0.016 s⁻¹
same,ka,[12],370000 M⁻¹ s⁻¹
same,kd,[12],0.000603 s⁻¹
same,epitope characterization on human FolR1 (in words),[13],binds to a different epitope than Mov19 and Farletuzumab
same,epitope characterization on human FolR1 (in words),[13]; listed as 36F2 IgG,"Measure not possible, huFolR1 dissociates too rapidly"
"Mov19: reference molecule, the human FolR1 binder Mov19 (IgG) (antibody, V domains shown) VH: QVQLQQSGAELVKPGASVKISCKASGYSFTGYFMNWVKQSHGKSLEWIGRIHPYDGDTFYNQNFKDKATLTVDKSSNTAHMELLSLTSEDFAVYYCTRYDGSRAMDYWGQGTTVTVSS VL: DIELTQSPASLAVSLGQRAIISCKASQSVSFAGTSLMHWYHQKPGQQPKLLIYRASNLEAGVPTRFSGSGSKTDFTLNIHPVEEEDAATYYCQQSREYPYTFGGGTKLEIK",ka,[3],861000 M⁻¹ s⁻¹
same,kd,[3],0.000121 s⁻¹
same,binding to erythrocytes,[14],could not observe any specific binding
same,ka,[15],297000 M⁻¹ s⁻¹
same,kd,[15],0.000193 s⁻¹
same,ka,[16],289000 M⁻¹ s⁻¹
same,kd,[16],0.000159 s⁻¹
same,Binding to huFolR3,[6],−
same,Binding to cyFolR1,[7],+
same,Binding to huFolR1,[8],+
same,Binding to muFolR1,[9],−
same,Binding to huFolR2,[10],−
same,ka,[11],1.29e+06 M⁻¹ s⁻¹
same,kd,[11],0.000139 s⁻¹
same,binding of analyte in solution 9D11 TCB to huFolR1 captured on the immobilized binder,[13]; [17],+/−
same,binding of analyte in solution 16D5 TCB to huFolR1 captured on the immobilized binder,[13]; [17],+
same,binding of analyte in solution 21A5 TCB to huFolR1 captured on the immobilized binder,[13]; [17],+
same,binding of analyte in solution 36F2 IgG to huFolR1 captured on the immobilized binder,[13]; [17],−
same,binding of analyte in solution Farletuzumab to huFolR1 captured on the immobilized binder,[13]; [17],−
same,binding of analyte in solution Mov19 IgG to huFolR1 captured on the immobilized binder,[13]; [17],−
